IntAct's records for PubMed 19759058

B1: Poly [ADP-ribose] polymerase 1 (Mus musculus), P11103 (parent)
chain: MAEASERLYRVQYAKSGRASCKKCSESIPKDSLRMAIMVQSPMFDGKVPHWYHFSCFWKVGQSIRHPDVEVDGFSELRWDDQQKVKKTAEAGGVAGKGQDGSGGKAEKTLGDFAAEYAKSNRSMCKGCLEKIEKGQMRLSKKMVDPEKPQLGMIDRWYHPTCFVKKRDELGFRPEYSASQLKGFSLLSAEDKEALKKQLPAIKNEGKRKGDEVDGTDEVAKKKSRKETDKYSKLEKALKAQNELIWNIKDELKKACSTNDLKELLIFNQQQVPSGESAILDRVADGMAFGALLPCKECSGQLVFKSDAYYCTGDVTAWTKCMVKTQNPSRKEWVTPKEFREISYLKKLKVKKQDRIFPPESSAPITVHWPLSVTSAPTAVNSSAPADKPLSNMKILTLGKLSQNKDEAKAVIEKLGGKLTGSANKASLCISIKKEVEKMNKKMEEVKEANIRVVSEDFLQDVSASTKSLQDLLSAHSLSPWGAEVKAEPGEVVAPRGKSAAPSKKSKGCFKEEGVNKSEKRMKLTLKGGAAVDPDSGLEHSAHVLEKGGKVFSATLGLVDIVKGTNSYYKLQLLEDDKESRYWIFRSWGRLGTVIGSNKLEQMPSKEEAVEQFMKLYEEKTGNAWHSKNFTKYPKKFYPLEIDYGQDEEAVKKLTVKPGTKSKLPKPVQELVGMIFDVDSMKKALVEYEIDLQKMPLGKLSRRQIQAAYSILSEVQQPVSQGSSESQILDLSNRFYTLIPHDFGMKKPPLLNNADSVQAKVEMLDNLLDIEVAYSLLRGGSDDSSKDPIDVNYEKLKTDIKVVDRDSEEAEVIRKYVKNTHATTHNAYDLEVIDIFKIEREGESQRYKPFRQLHNRRLLWHGSRTTNFAGILSQGLRIAPPEAPVTGYMFGKGIYFADMVSKSANYCHTSQGDPIGLIMLGEVALGNMYELKHASHISKLPKGKHSVKGLGKTTPDPSASITLEGVEVPLGTGIPSGVNDTALLYNEYIVYDIAQVNLKYLLKLKFNFKTSLW
partner: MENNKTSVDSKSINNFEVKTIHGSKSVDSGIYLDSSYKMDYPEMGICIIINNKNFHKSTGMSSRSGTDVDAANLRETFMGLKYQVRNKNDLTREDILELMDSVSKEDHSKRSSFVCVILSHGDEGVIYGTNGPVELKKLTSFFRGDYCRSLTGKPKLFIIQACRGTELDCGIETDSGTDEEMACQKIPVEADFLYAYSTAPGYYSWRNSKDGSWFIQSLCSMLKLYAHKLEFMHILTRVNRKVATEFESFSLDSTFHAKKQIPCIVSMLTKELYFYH

Variants of: B1
Conditions: with casp3_mouse Casp3, P70677

| effect of a mutation on the interaction | Variant |
| --- | --- |
| decreasing interaction | G210K |
